Laboratory results published in publication PMC5141509, “Identification of protein structural elements responsible for the diversity of sequence preferences among Mini-III RNases”.

How the values were obtained:
Ct(FpH)MiniIII (chimera) = experiment: filter binding; settings: Enzyme-specific cleavage buffer (Table S1, mostly not in material) with MgCl2 replaced by 1 mM CaCl2; 1.5 nM 33P-dsRNA, 50 ul, 1 h at room temperature …
[1] = tested on: Ct(FpHL)MiniIII (chimera); experiment: filter binding; settings: Enzyme-specific cleavage buffer (Table S1, mostly not in material) with MgCl2 replaced by 1 mM CaCl2; 1.5 nM 33P-dsRNA, 50 ul, 1 h at room temperature …
Ct(FpL)MiniIII (chimera) = experiment: filter binding; settings: Enzyme-specific cleavage buffer (Table S1, mostly not in material) with MgCl2 replaced by 1 mM CaCl2; 1.5 nM 33P-dsRNA, 50 ul, 1 h at room temperature …
CtMiniIII = experiment: filter binding; settings: Enzyme-specific cleavage buffer (Table S1, mostly not in material) with MgCl2 replaced by 1 mM CaCl2; 1.5 nM 33P-dsRNA, 50 ul, 1 h at room temperature …
FpMiniIII = experiment: filter binding; settings: Enzyme-specific cleavage buffer (Table S1, mostly not in material) with MgCl2 replaced by 1 mM CaCl2; 1.5 nM 33P-dsRNA, 50 ul, 1 h at room temperature …
SeMiniIII = experiment: filter binding; settings: Enzyme-specific cleavage buffer (Table S1, mostly not in material) with MgCl2 replaced by 1 mM CaCl2; 1.5 nM 33P-dsRNA, 50 ul, 1 h at room temperature …
BsMiniIII = biological target: T1, BsMiniIII (Bacillus subtilis, UniProt O31418 1-143); experiment: filter binding; 1 mM Ca2+ (no Mg2+); Enzyme-specific cleavage buffer (Table S1, mostly not in material) with MgCl2 replaced by 1 mM CaCl2; 1.5 nM 33P-dsRNA, 50 ul, 1 h at room temperature; nitrocellulose filter; one-site fit; settings: protein: recombinant; tags: N-terminal His6 (pET28a, NdeI/XhoI); chain copies: 2; label: 33P 5' end label; blunt
T1 sequence: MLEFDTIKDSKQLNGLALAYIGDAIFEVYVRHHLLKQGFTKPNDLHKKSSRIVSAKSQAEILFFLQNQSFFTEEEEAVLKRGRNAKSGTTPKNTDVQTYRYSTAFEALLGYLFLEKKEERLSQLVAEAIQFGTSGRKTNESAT

Molecule: CCUGUCCCCCGCCGAAGUCGCUGCAAUU / AAUUGCAGCGACUUCGGCGGGGGACAGG [NEG]
- Kd (Ct(FpH)MiniIII (chimera)): 1940 nM
- Kd [1]: 2250 nM
- Kd (Ct(FpL)MiniIII (chimera)): 1800 nM
- Kd (CtMiniIII): 1340 nM
- Kd (FpMiniIII): 19900 nM
- Kd (SeMiniIII): 190 nM

Molecule: GCUGGGAGGGAAACCUCUCUCUCUGGCC / GGCCAGAGAGAGAGGUUUCCCUCCCAGC [POS-ACCU]
- Kd (Ct(FpH)MiniIII (chimera)): 2620 nM
- Kd [1]: 2170 nM
- Kd (Ct(FpL)MiniIII (chimera)): 1330 nM
- Kd (CtMiniIII): 1140 nM
- Kd (FpMiniIII): > 100000 nM
- Kd (SeMiniIII): 160 nM

B1: POS-ACCU (dsRNA)
RNA 1: GCUGGGAGGGAAACCUCUCUCUCUGGCC
RNA 2: GGCCAGAGAGAGAGGUUUCCCUCCCAGC
- Kd (BsMiniIII): 140 ± 20 nM

B2: NEG (dsRNA)
RNA 1: CCUGUCCCCCGCCGAAGUCGCUGCAAUU
RNA 2: AAUUGCAGCGACUUCGGCGGGGGACAGG
- Kd (BsMiniIII): 70 ± 10 nM
